This is an account of results in US20240156961A1, “TISSUE-SPECIFIC ANTIGENS FOR CANCER IMMUNOTHERAPY” (priority 2020, published 2024).

One experiment addresses T1, class I HLA molecules (Homo sapiens, UniProt P01889).
T1 construct: Frozen cell pellets endogenously expressing MHC molecules (untagged) or biotin acceptor peptide (BAP)-tagged MHC molecules; biotin acceptor peptide (BAP), only in some samples; endogenous in cells; host or cells: Human cell lines (e.g. MDAPCa2b, CAMA1, HCC1500, A375, Expi293, B721) and human tissue (prostate, tumours); some cell samples express BAP-tagged HLA
The experiment in a line: Targeted mass spectrometry MHC-peptide analysis (SureQuant, heavy isotope-labeled synthetic peptides). The following applies: light endogenous vs heavy isotope-labeled synthetic peptide; human prostate specimen; HLA-B*07:02; Skyline software.

In experiment [1] the target is T2, HLA-A*02:01 (human).
T2 construct: MHC class I molecule expressed by the cells or tissue sample (endogenous or BAP-tagged), immunopurified before peptide elution
The experiment in a line: MS validation of HLA class I-presented peptide; samples lung tumor, GBM, OvCa13, breast tumor, A375, MSV000082648. How it is done: (§1) Frozen cell pellets endogenously expressing MHC molecules (untagged) or biotin acceptor peptide (BAP)-tagged MHC molecules were lysed by pipetting and end-over-end rotation for twenty minutes using lysis buffer [20 mM Tris-Cl pH 8, 100 mM NaCl, 6 mM MgCl2, 1.5% (v/v) Triton X-100, 60 mM octyl B-D-glucopyranoside, 0.2 mM of 2-Iodoacetamide, 1 mM EDTA pH 8, 1 mM PMSF, 1× complete EDTA-free protease inhibitor cocktail (Roche)] plus benzonase nuclease for twenty minutes. Tissue samples were homogenized in lysis buffer plus benzonase nuclease. All lysates were cleared by centrifugation. Samples with untagged MHC molecules were subsequently incubated with GammaBind Plus Sepharose Beads (GE Healthcare) pre-charged with a pan-HLA A/B/C antibody (clone W6/32) overnight at 4 C with end-over-end rotation. BAP-tagged samples were biotinylated with 0.56 μM biotin, 1 mM ATP, and 1 μM BirA biotin ligase for 10 minutes, and subsequently incubated with High-Capacity NeutrAvidin Agarose resin for 30 minutes at 4° C. with end-over-end rotation. Following enrichment, beads were washed 2× with wash buffer A [20 mM Tris-Cl pH 8, 100 mM, NaCl, 60 mM octyl B-D-glucopyranoside, 0.2 mM of 2-Iodoacetamide, 1 mM EDTA pH 8] and wash buffer B [10 mM Tris-Cl pH 8] using a positive pressure manifold. […]

In experiment [2] the target is T3, HLA-C*07:02 (human).
T3 construct: MHC class I molecule expressed by the cells or tissue sample (endogenous or BAP-tagged), immunopurified before peptide elution
Kind of experiment: MS validation of HLA class I-presented peptide; sample human prostate. As for the experimental part:
(§2) Frozen cell pellets endogenously expressing MHC molecules (untagged) or biotin acceptor peptide (BAP)-tagged MHC molecules were lysed by pipetting and end-over-end rotation for twenty minutes using lysis buffer [20 mM Tris-Cl pH 8, 100 mM NaCl, 6 mM MgCl2, 1.5% (v/v) Triton X-100, 60 mM octyl B-D-glucopyranoside, 0.2 mM of 2-Iodoacetamide, 1 mM EDTA pH 8, 1 mM PMSF, 1× complete EDTA-free protease inhibitor cocktail (Roche)] plus benzonase nuclease for twenty minutes. Tissue samples were homogenized in lysis buffer plus benzonase nuclease. All lysates were cleared by centrifugation. Samples with untagged MHC molecules were subsequently incubated with GammaBind Plus Sepharose Beads (GE Healthcare) pre-charged with a pan-HLA A/B/C antibody (clone W6/32) overnight at 4 C with end-over-end rotation. BAP-tagged samples were biotinylated with 0.56 μM biotin, 1 mM ATP, and 1 μM BirA biotin ligase for 10 minutes, and subsequently incubated with High-Capacity NeutrAvidin Agarose resin for 30 minutes at 4° C. with end-over-end rotation. Following enrichment, beads were washed 2× with wash buffer A [20 mM Tris-Cl pH 8, 100 mM, NaCl, 60 mM octyl B-D-glucopyranoside, 0.2 mM of 2-Iodoacetamide, 1 mM EDTA pH 8] and wash buffer B [10 mM Tris-Cl pH 8] using a positive pressure manifold. MHC molecules were eluted using 10% acetic acid and peptides were isolated using 10K molecular weight cut-off filtration following filter passivation with 1% bovine serum albumin (BSA). If required, samples were next reduced and alkylated using 5 mM Bond-Breaker TCEP solution at 60° C. for 30 min followed by 15 mM 2-Iodoacetamide for 30 min, protected from light. Samples were next acidified using 100% formic acid and desalted using 10 mg Sep-Pak tC18 μElution plates with peptide elutions at 15% acetonitrile and 50% acetonitrile, which were subsequently pooled. The volume of eluted peptides was reduced using vacuum centrifugation.

For experiment [3], the target named is T4, HLA-A*24:02 (human).
T4 construct: MHC class I molecule expressed by the cells or tissue sample (endogenous or BAP-tagged), immunopurified before peptide elution
Described as above. As for the experimental part: as §2

Experiment [4] concerns the target T5, HLA-C*06:02 (human).
T5 construct: MHC class I molecule expressed by the cells or tissue sample (endogenous or BAP-tagged), immunopurified before peptide elution
The description is as above. As for the experimental part:
as §2

The target in experiment [5] is T3, HLA-C*07:02. The experiment in a line: MS validation of HLA class I-presented peptide (second allele under Allele (MS)); sample human prostate. As for the experimental part:
as §1

Experiment [6] deals with T6, HLA-C*04:01 (human).
T6 construct: MHC class I molecule expressed by the cells or tissue sample (endogenous or BAP-tagged), immunopurified before peptide elution
The experiment in a line: MS validation of HLA class I-presented peptide; sample human prostate. As for the experimental part:
as §2

Experiment [7] deals with T4, HLA-A*24:02. Kind of experiment: MS validation of HLA class I-presented peptide (validation cell empty in Table 1C); sample human prostate.
Experiment [8] has as its target T7, HLA-C*07:01 (human).
T7 construct: MHC class I molecule expressed by the cells or tissue sample (endogenous or BAP-tagged), immunopurified before peptide elution
Kind of experiment: MS validation of HLA class I-presented peptide; samples MDAPCa2b, human prostate. As for the experimental part: as §1

The target of experiment [9] is T3, HLA-C*07:02. Kind of experiment: MS validation of HLA class I-presented peptide (second allele under Allele (MS)); samples MDAPCa2b, human prostate. As for the experimental part: as §1
For experiment [10], the target named is T2, HLA-A*02:01. Kind of experiment: MS validation of HLA class I-presented peptide; samples CAMA1, HCC1500. As for the experimental part: as §1
In experiment [11] the target is T2, HLA-A*02:01. The experiment in a line: MS validation of HLA class I-presented peptide; sample A375. How it is done: as §1
Experiment [12] addresses T7, HLA-C*07:01. Kind of experiment: MS validation of HLA class I-presented peptide; samples MDAPCa2b, human prostate, breast cancer. As for the experimental part: as §1
Experiment [13] deals with T8, HLA-B*07:02 (human).
T8 construct: MHC class I molecule expressed by the cells or tissue sample (endogenous or BAP-tagged), immunopurified before peptide elution
The experiment in a line: MS validation of HLA class I-presented peptide (second allele under Allele (MS)); samples MDAPCa2b, human prostate, breast cancer. As for the experimental part:
as §1

Experiment [14] has as its target T6, HLA-C*04:01. Kind of experiment: MS validation of HLA class I-presented peptide; samples B721, A375. As for the experimental part: as §1
In experiment [15] the target is T8, HLA-B*07:02. The experiment in a line: MS validation of HLA class I-presented peptide; sample human prostate. How it is done: as §2
In experiment [16] the target is T5, HLA-C*06:02. Kind of experiment: MS validation of HLA class I-presented peptide; sample MDAPCa2b. How it is done:
as §1

The target of experiment [17] is T9, HLA-A*01:01 (human).
T9 construct: MHC class I molecule expressed by the cells or tissue sample (endogenous or BAP-tagged), immunopurified before peptide elution
The experiment in a line: MS validation of HLA class I-presented peptide; samples GBM, A375. As for the experimental part:
as §1

The target in experiment [18] is T2, HLA-A*02:01. Kind of experiment: MS validation of HLA class I-presented peptide; multiple cell lines and tumor samples. As for the experimental part: as §1
Experiment [19] concerns the target T2, HLA-A*02:01. Kind of experiment: MS validation of HLA class I-presented peptide; sample human prostate. As for the experimental part:
as §2

Experiment [20] addresses T2, HLA-A*02:01. Kind of experiment: MS validation of HLA class I-presented peptide; samples CD165, HCC1500, CAMA1. As for the experimental part:
as §1

In experiment [21] the target is T6, HLA-C*04:01. Kind of experiment: MS validation of HLA class I-presented peptide; sample CAMA1. As for the experimental part: as §1
Experiment [22] concerns the target T9, HLA-A*01:01. The experiment in a line: MS validation of HLA class I-presented peptide; sample human prostate. How it is done:
as §2

Method for class I HLA molecules: Tissue samples were homogenized in lysis buffer plus benzonase nuclease. All lysates were cleared by centrifugation. […] BAP-tagged samples were biotinylated with 0.56 μM biotin, 1 mM ATP, and 1 μM BirA biotin ligase for 10 minutes, and subsequently incubated with High-Capacity NeutrAvidin Agarose resin for 30 minutes at 4° C. with end-over-end rotation. […] MHC molecules were eluted using 10% acetic acid and peptides were isolated using 10K molecular weight cut-off filtration following filter passivation with 1% bovine serum albumin (BSA). If required, samples were next reduced and alkylated using 5 mM Bond-Breaker TCEP solution at 60° C. for 30 min followed by 15 mM 2-Iodoacetamide for 30 min, protected from light. […] The volume of eluted peptides was reduced using vacuum centrifugation. For targeted analyses, isolated MHC-I peptides were labeled using an isobaric labeling reagent from the tandem mass tag (TMT) 10-plex reagent set (Thermo Fisher). Dried peptides were resuspended in 50 mM HEPES buffer pH 8.5 and combined with 33.3 μg of TMT solubilized in 100% anhydrous acetonitrile. […] Peptides were analyzed using SureQuant targeted data acquisition strategy, where the heavy isotope labeled synthetic peptide serves as a trigger to guide the acquisition of spectrum corresponding to the light (unlabeled) endogenous MHC peptide using mass offset triggering and pseudo-spectral matching. […]

Regarding HPEYNRPLL (listed as Homo sapiens), in the experiment with class I HLA molecules, the “dot product similarity score of peptide fragment ions” value is given as 0.992. Turning to GVYDGREHTV, the binding result with HLA-A*02:01 [1] is reported as “binds”. On to VFQVSHSF, for which the binding result with HLA-C*07:02 [2] is reported as “binds”. For the molecule LFHPEDTGQVF, in the experiment with HLA-A*24:02 [3], the binding result is “binds”. Consider IRNKSVILL, for which the binding result in the experiment with HLA-C*06:02 [4] and with HLA-C*07:02 [5] was “binds” throughout. Turning to TWIAPPLQV, the binding result with HLA-C*04:01 [6] is reported as “binds”. In the case of GYLQGLVSF, the binding result with HLA-A*24:02 [7] is listed as “binds”. As for LRPGDDSTL (4002 is used here), the binding result with HLA-C*07:02 [2] is “binds”. For the molecule QRVPVSHSF, the binding result in the experiment with HLA-C*07:01 [8] and with HLA-C*07:02 [9] was “binds” throughout. With SLSKILDTV, the binding result with HLA-A*02:01 [10] was “binds”. Turning to KVDELAHFL, the binding result with HLA-A*02:01 [11] is “binds”. As for HPEYNRPLL, the binding result in the experiment with HLA-C*07:01 [12] and in the experiment with HLA-B*07:02 [13] was “binds” in each case. In the case of SVPNKALEL, the binding result with HLA-C*04:01 [14] is given as “binds”. As to SLDQKLFQL, in the experiment with HLA-A*02:01 [10], the binding result is given as “binds”. Consider MPALPMVL, for which the binding result with HLA-B*07:02 [15] was “binds”. For AYSEKVTEF, in the experiment with HLA-C*06:02 [16], the binding result is “binds”. As for KVLEHVVRV, the binding result with HLA-A*02:01 [11] is “binds”. As to EVDPASNTY, the binding result with HLA-A*01:01 [17] is reported as “binds”. As to SLLQHLIGL, the binding result with HLA-A*02:01 [18] is reported as “binds”. As for LLANGRMPTV, in the experiment with HLA-A*02:01 [19], the binding result was “binds”. On to NRPLLANDL, for which the binding result in the experiment with HLA-C*06:02 [4] and with HLA-C*07:02 [5] was “binds” throughout. Regarding LLSHGAVIEV, the binding result in the experiment with HLA-A*02:01 [20] was “binds”. For SIPTKALEL, the binding result in the experiment with HLA-C*04:01 [21] is listed as “binds”. Turning to YSEKVTEFML, in the experiment with HLA-A*01:01 [22], the binding result is “binds”.
